Among the data in publication PMC8228269, “Characterization of Feruloyl Esterase from Bacillus pumilus SK52.001 and Its Application in Ferulic Acid Production from De-Starched Wheat Bran” (Foods, 2021) are Km and kcat values, retold here.

Substrate in this data set: COC(=O)/C=C/c1ccc(O)c(OC)c1
Description: HPLC-UV of released ferulic acid, nonlinear Hill fit. In kind it is biochemical, Bacillus pumilus. The conditions noted are these: 0.1-8 mmol/L substrate, 50 mmol/L Tris-HCl pH 9.0, 50 °C.

B1: BpFAE (Bacillus pumilus) (protein)
chain: MNLQEQIKIAASLRQPAEGSLPSQSELKPVHPPEVNKMEYDIPTSAGETKVWIFKPVNTSKQPLPVFVNLHGGGFILGSAEMDNHWCPVIADRAQCIVVNVEYQLAPEHPFPAALHECYDVLKWLYEHPDELQIDPNRVAIGGHSAGGNLATAACLLNIQKGNPVPIVYQVLDYPPLDLATDPAEKPAFEEAIPVEMARLFNAFYLQGQDPHNPLVSPIFADRSSLAQLPPALVITAERDSLAQEAEQYAEKLKEAGVDVTYRQFKGVPHAFTHAGDLEIAEEAWHLMSDQLKKAFE
notes: C-terminal 6xHis tag (removal not mentioned); expressed in B. subtilis WB800 from pMA5 (NdeI/BamHI); forward primer reads […]; (ATG of the NdeI site followed by a second ATG)
As to B1, the Km came out at 950 µM and the kcat amounted to 514.91 s⁻¹.

The Km is the substrate concentration at which the rate is half of its maximum. Usually kcat stands for the number of substrate molecules converted per active site and unit of time at saturation.
